First the molecules themselves.
B1: 抗ヒトFasヒト化抗体 [B] (expression product of pHμM1-1 and pHκKY2-58 in COS-7 cells; HμM heavy chain + VL-KY light chain) (antibody)
heavy: EVQLVQSGAEVKKPGASVKVSCKASGYTFTDYNMHWVKQAHGKSLEWMGYIYPYNGGTGYNQKFKSKATLTVDNSASTAYMELSSLRSEDTAVYYCARSYYAMDYWGQGTLVTVSSGSASAPTLFPLVSCENSPSDTSSVAVGCLAQDFLPDSITFSWKYKNNSDISSTRGFPSVLRGGKYAATSQVLLPSKDVMQGTDEHVVCKVQHPNGNKEKNVPLPVIAELPPKVSVFVPPRDGFFGNPRKSKLICQATGFSPRQIQVSWLREGKQVGSGVTTDQVQAEAKESGPTTYKVTSTLTIKESDWLSQSMFTCRVDHRGLTFQQNASSMCVPDQDTAIRVFAIPPSFASIFLTKSTKLTCLVTDLTTYDSVTISWTRQNGEAVKTHTNISESHPNATFSAVGEASICEDDWNSGERFTCTVTHTDLPSPLKQTISRPKGVALHRPDVYLLPPAREQLNLRESATITCLVTGFSPADVFVQWMQRGQPLSPEKYVTSAPMPEPQAPGRYFAHSILTVSEEEWNTGETYICVVAHEALPNRVTERTVDKSTGKPTLYNVSLVMSDTAGTCY
light: DVVMTQSPLSLPVTLGQPASISCRSSKSLVHSNGNTYLHWYLQKPGQSPKLLIYKVSNRFSGVPDRFSGSGSGTDFTLKISRVEAEDVGVYYCSQSTHVPPAFGQGTKVEIKRTVAAPSVFIFPPSDEQLKSGTASVVCLLNNFYPREAKVQWKVDNALQSGNSQESVTEQDSKDSTYSLSSTLTLSKADYEKHKVYACEVTHQGLSSPVTKSFNRGEC
B2: 抗ヒトFasヒト化抗体 [I] (expression product of pHμH5-1 and pHκRF2-52 in COS-7 cells; HμH heavy chain + VL-RF light chain) (antibody)
heavy: B1 heavy with K38R, H41P, K43Q, S44G
light: B1 light with K50R, Y92F
B3: 抗ヒトFasヒト化抗体 [D] (expression product of pHμM1-1 and pHκRY2-10 in COS-7 cells; HμM heavy chain + VL-RY light chain) (antibody)
heavy: B1 heavy
light: B1 light with K50R
B4: 抗ヒトFasヒト化抗体 [C] (expression product of pHμM1-1 and pHκKF2-19 in COS-7 cells; HμM heavy chain + VL-KF light chain) (antibody)
heavy: B1 heavy
light: B1 light with Y92F
B5: 抗ヒトFasヒト化抗体 [G] (expression product of pHμH5-1 and pHκKF2-19 in COS-7 cells; HμH heavy chain + VL-KF light chain) (antibody)
heavy: B1 heavy with K38R, H41P, K43Q, S44G
light: B1 light with Y92F
B6: 抗ヒトFasヒト化抗体 [E] (expression product of pHμM1-1 and pHκRF2-52 in COS-7 cells; HμM heavy chain + VL-RF light chain) (antibody)
heavy: B1 heavy
light: B1 light with K50R, Y92F
B7: マウス抗ヒトFas抗体CH11(MBL社) (antibody, mouse IgM)
heavy: EVQLQQSGPELVKPGASVKISCKASGYTFTDYNMHWVKQSHGKSLEWIGYIYPYNGGTGYNQKFKSKATLTVDNSSSTAYMELRSLTSEDSAVYYCARSYYAMDYWGQGTSVTVSSESQSFPNVFPLVSCESPLSDKNLVAMGCLARDFLPSTISFTWNYQNNTEVIQGIRTFPTLRTGGKYLATSQVLLSPKSILEGSDEYLVCKIHYGGKNRDLHVPIPAVAEMNPNVNVFVPPRDGFSGPAPRKSKLICEATNFTPKPITVSWLKDGKLVESGFTTDPVTIENKGSTPQTYKVISTLTISEIDWLNLNVYTCRVDHRGLTFLKNVSSTCAASPSTDILTFTIPPSFADIFLSKSANLTCLVSNLATYETLNISWASQSGEPLETKIKIMESHPNGTFSAKGVASVCVEDWNNRKEFVCTVTHRDLPSPQKKFISKPNEVHKHPPAVYLLPPAREQLNLRESATVTCLVKGFSPADISVQWLQRGQLLPQEKYVTSAPMPEPGAPGFYFTHSILTVTEEEWNSGETYTCVVGHEALPHLVTERTVDKSTGKPTLYNVSLIMSDTGGTCY
light: DVVMTQSPLSLPVSLGDQASISCRSSKSLVHSNGNTYLHWYLQKPGQSPKLLIYKVSNRFSGVPDRFSGSGSGTDFTLKISRVEAEDLGVYFCSQSTHVPPAFGGGTKLEIKRADAAPTVSIFPPSSEQLTSGGASVVCFLNNFYPKDINVKWKIDGSERQNGVLNSWTDQDSKDSTYSMSSTLTLTKDEYERHNSYTCEATHKTSTSPIVKSFNRNEC
chain: DDEATILADNKCMCTRVTSRIIPSTEDPNEDIVERNIRIVVPLNNRENISDPTSPLRRNFVYHLSDVCKKCDPVEVELEDQVVTATQSNICNEDDGVPETCYMYDRNKCYTTMVPLRYHGETKMVQAALTPDSCYPD

The values that follow come from patent JP2000154149A (dated 2000).

Substitutions are numbered along the chain they refer to.

In this assay the target is T1, ヒトFas抗原 on human lymphocyte cell line HPB-ALL (human, UniProt P25445 26-335).
T1 sequence (looked up): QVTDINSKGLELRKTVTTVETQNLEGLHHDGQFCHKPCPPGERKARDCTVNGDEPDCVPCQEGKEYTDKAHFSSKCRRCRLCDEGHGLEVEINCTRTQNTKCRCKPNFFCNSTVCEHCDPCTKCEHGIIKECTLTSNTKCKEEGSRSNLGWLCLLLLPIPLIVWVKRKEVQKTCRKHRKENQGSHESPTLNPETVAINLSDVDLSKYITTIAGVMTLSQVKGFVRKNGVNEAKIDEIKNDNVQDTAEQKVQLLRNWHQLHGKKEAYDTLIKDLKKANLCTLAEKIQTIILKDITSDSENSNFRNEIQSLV
Description: cell-based or functional assay.
As to B1, the “ED 50 (IgM concentration at which HPB-ALL cell survival is 50%), 細胞障害活性” value was 1.1 ng/mL.
B2: the “ED 50 (IgM concentration at which HPB-ALL cell survival is 50%), 細胞障害活性” value stood at 3.4 ng/mL.
B3: the “ED 50 (IgM concentration at which HPB-ALL cell survival is 50%), 細胞障害活性” value was found to be 1.7 ng/mL.
B4: the “ED 50 (IgM concentration at which HPB-ALL cell survival is 50%), 細胞障害活性” value came to 1 ng/mL.
For the molecule B5, the “ED 50 (IgM concentration at which HPB-ALL cell survival is 50%), 細胞障害活性” value worked out at 2.4 ng/mL.
To B6 belongs 1.5 ng/mL.
For the molecule B7, the “ED 50 (IgM concentration at which HPB-ALL cell survival is 50%), 細胞障害活性” value stood at 10.7 ng/mL.
